Data reported in patent US9758785B2, “miR-520 microRNAs sensitize cancers to platinum-based therapy” (BAYLOR COLLEGE OF MEDICINE, priority 2012, dated 2017).
Entries after “also recorded” stand apart in the source; their conditions may differ.

B1: hsa-mir-520a MI0003149 (nucleic acid, listed as Homo sapiens)
chain: CUCAGGCUGUGACCCUCCAGAGGGAAGUACUUUCUGUUGUCUGAGAGAAAAGAAAGUGCUUCCCUUUGGACUGUUUCGGUUUGAG
modifications: expressed or natural sequence
notes: seed 5'aagugcu; mimic or stably expressed

Assays:
Type in all cases: cell-based, human
OVCAR8 cells [1] = assay: Viability (MTS) across cisplatin concentrations, stable microRNA clones
Experimental: (§1) Established ovarian cancer cell lines were obtained from the ATCC (OVCAR8, OVCAR5) and the University of Texas M.D. Anderson Cancer Center (HEYA8, SKOV3ip1). All cell lines were maintained at 37° C. in RPMI 1640 media (Invitrogen, Carlsbad, Calif.) supplemented with 10% fetal bovine serums (Hyclone, Logan, Utah) and 1% penicillin/streptomycin (Gibco, Carlsbad, Calif.). MicroRNA mimics and mimic controls (Dharmacon, Lafayette, Colo.) were transiently transfected into actively growing cultures using Lipofectamine 2000 (Invitrogen, Carlsbad, Calif.). After a 24-hour incubation, transfected cultures were washed, passaged and seeded into 96 well plates. Proliferation and apoptosis were measured at 72, 96 and 120 hours after transfection using standard assays (Cell Titer 96 Aqueous One; Caspase Glo 3/7; Promega, Madison, Wis.). pLemiR expression vectors (Open Biosystems/Thermo, Huntsville, Ala.) were prepared according to manufacturer's instructions and transfected into cells using Fugene 6 (Roche, Indianapolis, Ind.). Following transfection, stable clones were selected using puromycin (Invitrogen) at doses optimized for each line. Rates of proliferation and apoptosis were examined in stable transfectants 24, 48, 72 and 96 hours after selected cells had been passaged and dispensed into 96 well plates. Viability was assessed across a clinically relevant range of cisplatin concentrations using an MTS assay (Promega). Cisplatin was obtained from Teva Pharmaceuticals (Irvine, Calif.).
(§2) For this reason, the inventors created clones of OVCAR8 and SKOV3ip1 ovarian cancer cell lines stably expressing either miR-520h (n=3) and miR-520a (n=3). […] To assess the impact of these microRNAs on cisplatin-induced cell killing, the inventors examined the viability of OVCAR8 and SKOV3ip1 cells stably expressing either microRNA incubated with clinically relevant concentrations of cisplatin. […] It should be noted that SKOV3ip1 cells tolerated only very low levels of miR-520a expression. The impact of cisplatin treatment on rates of apoptosis differed dramatically between the two cell lines.

SKOV3ip1 cells [2] = assay: as above
Experimental: as §1, §2

OVCAR8 cells [3] = assay: Proliferation assay (MTS, Cell Titer 96 Aqueous One); settings: OVCAR8, transient/acute mimic transfection vs non-silencing control, no cisplatin
Experimental: as §1

[4] = tested on: established ovarian cancer cell lines; assay: Proliferation or apoptosis in established ovarian cancer cell lines after mimic transfection; settings: mimics vs control cultures; cell lines SKOV4, HEY, OVCAR8, OVCAR5
Experimental: as §1, with “Rates of proliferation and apoptosis were examined in stable transfectants 24, 48, 72 and 96 hours after selected cells had been passaged and dispensed into 96 well plates.” left out, “Cisplatin was obtained from Teva Pharmaceuticals (Irvine, Calif.).” left out

OVCAR8 cells [5] = assay: Apoptosis assay (Caspase Glo 3/7)
Experimental: as §1

SKOV3ip1 cells [6] = assay: Apoptosis assay (Caspase Glo 3/7)
Experimental: as §1

Molecule | IC50 for cisplatinum in control cells (OVCAR8 cells [1]; OVCAR8 cells expressing a non-targeting mimic control) [µg/mL] | IC50 for cisplatin in control cells (SKOV3ip1 cells [2]; SKOV3ip1 cells expressing the non-silencing control) [µg/mL] | Proliferation (OVCAR8 cells [3]) | Impact on proliferation or apoptosis [4] | Apoptosis (caspase 3/7) (OVCAR8 cells [5]; OVCAR8, transient/acute mimic transfection vs non-silencing control, no cisplatin) | Apoptosis in presence of cisplatin (OVCAR8 cells [5]; OVCAR8 stable clones, cisplatin up to 10 μg/mL) | Apoptosis (caspase 3/7) (SKOV3ip1 cells [6]; SKOV3ip1, acute mimic transfection, no cisplatin) | Apoptosis in presence of cisplatin (SKOV3ip1 cells [6]; SKOV3ip1 stable clones, cisplatin treatment) | Sensitization to cisplatin (viability) (OVCAR8 cells [1]; OVCAR8 stable clones vs non-silencing mimic, cisplatin <5 μg/mL) | Sensitization to cisplatin (viability) (SKOV3ip1 cells [2]; SKOV3ip1 stable clones vs non-silencing mimic)
N.N.[Cl][Pt][Cl] [cisplatin, reference compound] | 1.31 | 0.43 |  |  |  |  |  |  |  | 
B1 |  |  | decreased proliferation only in OVCAR8 cells | impacted proliferation and/or apoptosis in some but not all | decreased rates of apoptosis | significantly decreased; also recorded: significantly lower rates of apoptosis | decreased rates of apoptosis | significantly increased | sensitized | appeared to sensitize
